Data set [1] concerns the target T1, LEKTI domains 10-15.
T1 chain: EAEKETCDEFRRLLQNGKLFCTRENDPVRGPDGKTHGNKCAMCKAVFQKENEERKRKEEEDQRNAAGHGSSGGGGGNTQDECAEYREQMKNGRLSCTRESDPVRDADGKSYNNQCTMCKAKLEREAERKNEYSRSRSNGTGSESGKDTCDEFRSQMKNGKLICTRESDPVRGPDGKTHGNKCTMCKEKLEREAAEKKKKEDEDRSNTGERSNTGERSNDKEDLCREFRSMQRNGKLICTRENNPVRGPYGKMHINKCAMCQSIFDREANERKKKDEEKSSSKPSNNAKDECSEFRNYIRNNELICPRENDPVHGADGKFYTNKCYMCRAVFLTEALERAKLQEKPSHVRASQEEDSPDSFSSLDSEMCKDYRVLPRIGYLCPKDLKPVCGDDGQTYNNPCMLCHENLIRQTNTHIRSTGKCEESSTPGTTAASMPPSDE

Data set [2] deals with T2, recombinantly produced LEKTI Domain 6.
T2 chain: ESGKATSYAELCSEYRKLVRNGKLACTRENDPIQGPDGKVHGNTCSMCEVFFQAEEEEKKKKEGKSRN

B1: KLK7 (protein)
chain: IIDGAPCARGSHPWQVALLSGNQLHCGGVLVNERWVLTAAHCKMNEYTVHLGSDTLGDRRAQRIKASKSFRHPGYSTQTHVNDLMLVKLNSQARLSSMVKKVRLPSRCEPPGTTCTVSGWGTTTSPDVTFPSDLMCVDVKLISPQDCTKVYKDLLENSMLCAGIPDSKKNACNGDSGGPLVCRGTLQGLVSWGTFPCGQPNDPGVYTQVCKFTKWINDTMKKHR
On to B1, for which the “KLK7 activity (Suc-Arg-Pro-Tyr-p-Nitro-Anilide substrate, 405 nm)” value in data set [1] and in data set [2] was “recombinantly produced LEKTI Domain 6 inhibits KLK7 in vitro about as well as LEKTI domains 10-15” throughout.

The record behind these values is patent US20260193323.
